Test: soluble on expression in E. coli; label from the status in PepcDB or PDB records

| Sequence | soluble on expression in E. coli |
| --- | --- |
| MKTVLLTGFDPFGGESINPAWEVAKSLHEKTIGEYKIISKQVPTVFHKSISVLKEYIEELAPEFIICIGQAGGRPDITIERVAINIDDARIADNEGNQPVDVPVVEEGPAAYWSTLPMKAIVKKLQEEGIPASVSQTAGTFVCNHLFYGLMHELEKHDTKMKGGFIHIPFLPEQASNYPGQPSMSLSTIRKGIELAVEVTTTVEVDIVEVGGTTH | soluble |
| MKTVYLTIDDGPSKDRKEKVDILYQYGIQPIWFCIGSEIEKRPEDVIYSIRKGGIIGNHSYSHPRFSQISLEECFEEIEKTDRIIDSIYREAGVARPIKAFRFPYGDKGEDNNFFKKPYSEEGKKKISKIMTFLKELGYTKPKFDGITYEYYSKFGLKDDIDWYWTYDVAEWCTFQEKPMFGVRTIDDVFELMELDLPEKWAGLNYPYSDDIILMHDHPQTTPLFKPIICQLLKKGLHFGAIPLE | soluble |
| MKVAVLDFGKTNSKLFVFGQDGGILDERRTQPKWTHQDGFSVLDEAALHDWALGAVTEAVENHGVEGVMVSGHGCTFALVDDAALTHPILDYEQEPPAEIAARIDHRIPDFAETFSPRLPLGFNYGRHMLWVQEVDPDAFAAAKSILGYPQYWSWRLGGRPVSEVSYLGCHSHLWAPRSQDFSSLVDAEGWRGQMPAFARAGAVIGERRLGSSSRPIAIHNGVHDSNAALHAYRRQELGPLTVVSTGTWVVVLNPGCPLDVLDRDRDMLVNVDVDGGPVPTIRFMGGREFAAISAGWQGAIPPGAVQQAIDAGIMALPSFAPGGPMPDRPGRLVGRTPYAAERAAAALLYVALMVDLCLDLIQSQDTVIVDGGLNAGGLLAGLLAELRPGQAFLQGATLEGSATGAAALAFESVGRDFVAEAPEPVHAARFAGLAGYRDAWRDRVGGQGTAIKAAGGARLEHHHHHH | not soluble |
| MKVDLFDFHLPEELIAQTPLPDRAASRLMVLDKRTGAIRHETFRNIISYLNPGDCLVLNDTRVMPARLYGEKEETGGTVEVLLLKQLDGDRWETLVKPGKRVKPGTKLTFGGGKLEAVCLDTLEHGGRVLEFSYDGLFYEVLAELGEMPLPPYIKEKLDDPERYQTVYAREIGSAAAPTAGLHFTEELLDAIREKGVHIVFITLHVGLGTFRPVQVDEVEKHDMHAEFYQMSEETAETLNRVREQGGRIIAVGTTSTRTLETIAGKHNGRFVAESGWTDIFIYPGYEFKGIDGLVTNFHLPKSTLIMLVSALAGRENILHAYQVAVKERYRFFSFGDAMLII | not soluble |
| MKVFEGKPRINSPHITGNYPSTPFIFYIPTSGQRPMQWSAEKLPEGLELDSKTGIISGVMTSKGDYTVTLKAENALGVSVKQLEHHHHHH | not soluble |
| MKVKSISRFFSMKKVTLSFVTLFIGVGTIGSYNQYADASMKTQQTHVTKSSPTQKTTSNFKRSVKDTSVKSRATSIKRATSTKQAISPKTSSTKKTTIAKKSTTVNKTRTTTKTQPTIRKSSTTSTRSKTMPTSVKRTTSHKATTVSPTSKAKISTKTQQSTKSHTTSVKKNTTQLSKTKSPSTSTKSKTVQSSTTKAQPTLSTQVSTTTKAKQFSTPTTSKTDSSKSLVSLASTERKIDKYQSMTQLEKETTEGVDWRKDTKNTGNQVLIVAPHGGSIEQGTTELTKALADKGNYDYYSFEGIRPKNNSELHVTSTHYDDPTLNQMIKNRTATISIHGASGSEEIIYLGGPRSDLRNAIEKQLVARGFTVKVPPEYLGGQNNKNFINREDNNTGVQLELTTALRKAFFKNGDTSTKNRTNKENWTPTMEEFINALYEGINQTYSLEHHHHHH | not soluble |
| MKVLFAKTFVKDLKHVPGHIRKRIKLIIEECQNSNSLNDLKLDIKKIKGYHNYYRIRVGNYSIGIEVNGDTIIFRRVLHRKSIYDYFP | soluble |
| MKVLFRSDSSSQIGFGHIKRDLVLAKQYSDVSFACLPLEGSLIDEIPYPVYELSSESIYELINLIKEEKFELLIIDHYGISVDDEKLIKLETGVKILSFDDEIKPHHCDILLNVNAYAKASDYEGLVPFKCEVRCGFSYALIREEFYQEAKENRKKKYDFFICMGGTDIKNLSLQIASELPKTKIISIATSSSNPNLKKLQKFAKLHNNIRLFIDHENIAKLMNESNKLIISASSLVNEALLLKANFKAICYVKNQESTATWLAKKGYEVEYKYLEHHHHHH | soluble |
| MKVLHMNAGAEEGGGKTHIISLLSQFSKEEVELMVFEEGAIAREARNLGIQVHVFTQSSRYDLSILSKIKAFINENQFDIVHTHGARANFYLSLLKKGIKAKWIMTVHSDPTLDFMKRGLKGWVFTKLNLRSFRKVDLFFAITENFKRNIIKLGVPEEKICTVYNGIEYDSNPAKPYDKSEFGIDEGIFTAIQVARLHPVKGHDILFEALQKIKIPNIKVLLLGDGPIEAELKEMVKQKGLEDKVMFLGFRIDSKELYASAHINLLTSYSESFPLVLLEAANQRLTSIATNVGDMKKLIVDDTYGWIVPIGDADSLANALENAYEKWLNGELEAMGNRLYTHASTHFSLKNLYEDTYNAYKTLLLK | not soluble |
| MKVLILTVGTTREPLEVALAEHAPQGVVFLASQASHPVAAELVRDYGGSFRHHTLLLEDAESLMEAYQKALLALRKALEWEATAIVADLTGGTKPMAAGLVLALTGRGVVFSYVGGEARDPGTGRVLAGKERLRLLEDPTARLGLKEWAGFTRAWNALNLGMALAELESLLRRDLSPSEARFYGAMKGVVEGLMEWDRFRHREAWERLSVHLPLALAVAEAWGHGAKVRVLKGLEALLPHLKGIVEAGPKPTFLLLQDLLANAERRAALGRFDDALARLYRALELAVEADVHERLGFSLKDPRTWPEGFPEGLRERILKPRGLMDLLDAAFDLDLAFGEQGTLAQRLYGEKNRLQALLQRRHESILAHGTRPVGEEDYTALRDFLMRLDERLRPLPPWPRF | soluble |
| MKVRFLQISDLHFQFQNYDTIVMRDKLLDFIEVLRRESDFDFLLLTGDIAHKGDVYNEDVKEYLNGIIKSMGLSKNNVHLVPGNHDISRDMTRTLLIDSIMKSPNPSEMLDKLDQKATNILVEGQRKFFDFYEDFMGVKYPEEDLHFLYQSEKYNVLSINTCLLSDKKGEEGTLLTAQMKLYKAIRKMNKEKNKGKVLNIAIGHHTLGCIESSERESIKAHFDDYFIDLYLAGHVHDSSFNITANTNENPFLELVSGAIIKDEYATPEFISVDVNLDNGETEVTYYIWNTEYKYWSKNNQGGRRLQEGKLNYKINRLESLIEKEIEDNDDKIDEDEFKSFIIDFHEYRESYKTFTSNFDNQIGLDKKFYDMKSGETFKRKFDSYSEYFGVINHIMDSTSYVSADKKELIAETIVDKYLEFHNQYNNGDEIFVKIVNEIYLECHSVLPYSKALTKKYIKILTCWCIYECEIFNDNKRSVKNDLEHHHHHH | soluble |
| MKVSLVIPTYNSKDLVAPCLVSLNHQRLDEADEFEVVLVDDGSTDGTGEVVDSLPLTYRIRRVYVPRTEKSCRSAARNAGIRAADGELIVFVDGDQIIDPLFVQEHIRCHRGRPAIVAIGFRDYQAPGAVDLALLERSFTPEAFPPVADQDERAQVTATLSQNMGNLATGWHFFYGCNVSVRKEHLLAVGGFDENIQKWSFEDVELGYRLHRRGLAFVHNLYSRVYHQFHPESDQERYADWRENFEYFTSKHPELEVRLQWVLDSYFDPGRTSRPSWFDAYLRFEFACRAVAERLPIGHSYEVLVVDADNLDSAEREIARVGAAHDLIVVDITDDRELPTAVQAMRTGRELLYFKEPSPELLQQAAKSFGCAALLKYAAEVLEHHHHHH | soluble |
| MKYCKFCCKAVTGVKLIHVPKCAIKRKLWEQSLGCSLGENSQICDTHFNDSQWKAAPAKGQTFKRRRLNADAVPSKV | soluble |
| MKYFEFTFHTSPCTETVNDVLAAVLGEAGFESFVESEGGLTAYIQQALCDENTIKNAITEFPLPDTEITYTYVEAEDKDWNEEWEKNFFQPIVIDNRCVIHSTFHKDVPQATYDIVINPQMAFGTGHHETTSLIIGELLDNELKDKSLLDMGCGTSILAILARMRGARPCIAIDIDEWCVRNSIENIELNHVDDIAVSQGDASSLVGKGPFDIIIANINRNILLNDMKQYVACMHPGSELYMSGFYVDDIPFIRREAEKNGLTFVHHKEKNRWAAVKFTY | not soluble |
| MKYFNVGKIVNTQGLRGEVRVLSVTDFADERFKKGSQLALFDKKDHFAMTVEIASHRKHKNFDIVKFKGLYHINDVEKYRDFTLKVTEDHLADLEDGEFYYHEIIGLDVYENDILIGQVKEILQPGANDVWVVKRKGKKDLLLPYIPSVILKVDVPNGRIDVTVLEGLDDENLEHHHHHH | soluble |
| MKYIVAVNASPRSGWNTSQLVEAAAKGAKEAGATVDIIDLYKLEPFQGCISCFGCKLPRTFGRCVSKDGLSEVLDKIRKADGLILGSPNYLGNLTAGFRALYERLIFQSLTYNKERPNCNEHMIPVLLITTSNCDESIYDKIGYTSMLEGYKQMLERFVGPLEHHHHHH | not soluble |
| MKYLAAYLLLVQGGNAAPSAADIKAVVESVGAEVDEARINELLSSLEGKGSLEEIIAEGQKKFATVPTGGASSAAAGAAGAAAGGDAAEEEKEEEAKEESDDDMGFGLFD | soluble |
| MKYNTMNNDEIILSLCARLKETRLSLSMTQQQLADRAHVGIATIKRIEKGGGLNLDTLISLLRALDKLHNLDAVLFESELRNFHESYEGGEGSGRLQVRQQAADLNNKSSAPQSEEVNYSAALENSLCW | not soluble |
| MLAGHTLIESKNDHQSRRNCEFRRAIAAAGRCRRVYGGALPLLASSVPMSVRMDTRHRQKQALAQTAATMIEPGEFIFLDSGSTNLALIDFLPKGYDLTLATNSIDIAGAALRGQDLKLIMLGGTVDLAVGGCVDATAIGSLAQMNIDRSFIGVCSVSPTFGLSAFDIADATFKRALVAASGYTIALATTDKLEVRAPHRVSEINEIDCLVLEHDAPISHLDDLVRAGASIVKALQPFAAALEHHHHHH | not soluble |
| MLAHIKITHFAIVKSLELDLTKGMTTITGETGAGKSIAIDALGLCLGDRAEASMVRQGEEKAEITVLFTLENNINAKRWLEDNELYDGNDCILRRVITKEGRSRGFINGSPVPAAQLKTLGHLLINIHGQHAHHELMKPEYQLNMLDQYAGHVSLLNKTRSRYQAWRQA | not soluble |
| MLASIPLKDIQIQDRFWKERLDLVRKEIIPYQWEAMNDRVPNAEPSHCIENYRIAAGQAQGSFYGEVFQDSDLAKWLEAVAYVLSFQPDPKLEKLADEAIELVCAAQQSDGYLNTFFTIKEPDQRWRNLREGHELYCAGHMMEAAVAYFEATGKRRLLDAMMRFADLICNTFGPEEGKIHAYPGHEEVELALFRMYRATGVRRYLELSAYFINCRGTGENYFRKENDRPGYLPIWGSMDTNSDMSYYQAHQPVREQKQAAGHAVRAMYLYSAMADLAGELKDEGLLNACKTLWNNVTERQMYVTGGVGASGILERFTTDYDLSNEMAYAESCASIGLMLFGLRMNRVTRQAQYFDPVERALYNTVLASVALDGKSFFYVNPLEVWPKACMPYTSKEHVKPVRQPWFSCACCPPNVARTFASLGQYIWAQDSQRVYLNLFISSTVKAKNGAILKLETEFPMGNVLKITSDQVLELAVRIPGYGKNFRANVSYRKENGYGVFELEAGKELEIQFDAPACFIRANPEVRACSGKVCIQRGPVVYCLEEIDNGSNLSALSVDTAVSPGERESDIPGGLMITASGKRRRPWADDKLYGEIPSQYEETVLQAVPYAFWGNREKGEMTVWIRESLEHHHHHH | not soluble |
| MLDANKLQQAVDQAYTQFHSLNGGQNADYIPFLANVPGQLAAVAIVTCDGNVYSAGDSDYRFALESISKVCTLALALEDVGPQAVQDKIGADPTGLPFNSVIALELHGGKPLSPLVNAGAIATTSLINAENVEQRWQRILHIQQQLAGEQVALSDEVNQSEQTTNFHNRAIAWLLYSAGYLYCDAMEACDVYTRQCSTLLNTIELATLGATLAAGGVNPLTHKRVLQADNVPYILAEMMMEGLYGRSGDWAYRVGLPGKSGVGGGILAVVPGVMGIAAFSPPLDEDGNSVRGQKMVASVAKQLGYNVFKGLEHHHHHH | not soluble |
